From patent WO2020239014A1 (dated 2020)
“And” between values parts separate entries of the source, which are not always exact repeats. Equal entries are not always repeated.

T1: CGRPα (4013281-1000, Bachem) (human, UniProt P06881 83-119, not fully specified)
T1 construct: mature; ELISA: coated Bachem CGRPα; also called α-CGRP; human CGRP
T1 peptide (looked up): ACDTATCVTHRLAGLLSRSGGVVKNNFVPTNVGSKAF

B1: CGRPM5-BA51.23-IgG2 (antibody, V domains shown)
VH: QVQLVQSGAEVKKPGASVKVSCKASGYTFTRYTMHWIRQAPGQGLEWMGYIYPSSGYTIYNQKFQGRVTMTRDTSTSTVYMELSSLRSEDTAVYYCATEGHYAGNGNYEGYWGQGTTVTVSS
VL: DIVMTQSPSSLSASVGDRVTITCRASSSISSNYLHWYQQKPGKAPKLLIYRTSNLASGVPSRFSGSGSGTDFTLTISSLQPEDFATYYCQQGSSIPFTFGQGTKLEIK
notes: Humanized BA51, IgG2; also called CGRP-BA51.23; CGRP-BA51.23-IgG2
B2: CGRPM5-BA51.23-IgG2-N105D (antibody, V domains shown)
VH: QVQLVQSGAEVKKPGASVKVSCKASGYTFTRYTMHWIRQAPGQGLEWMGYIYPSSGYTIYNQKFQGRVTMTRDTSTSTVYMELSSLRSEDTAVYYCATEGHYAGDGNYEGYWGQGTTVTVSS
VL: DIVMTQSPSSLSASVGDRVTITCRASSSISSNYLHWYQQKPGKAPKLLIYRTSNLASGVPSRFSGSGSGTDFTLTISSLQPEDFATYYCQQGSSIPFTFGQGTKLEIK
notes: IgG2; also called optimized BA51.23 antibody (N105D)
B3: CGRPM5-BA51.23-IgG2-N105L (antibody, V domains shown)
VH: QVQLVQSGAEVKKPGASVKVSCKASGYTFTRYTMHWIRQAPGQGLEWMGYIYPSSGYTIYNQKFQGRVTMTRDTSTSTVYMELSSLRSEDTAVYYCATEGHYAGLGNYEGYWGQGTTVTVSS
VL: DIVMTQSPSSLSASVGDRVTITCRASSSISSNYLHWYQQKPGKAPKLLIYRTSNLASGVPSRFSGSGSGTDFTLTISSLQPEDFATYYCQQGSSIPFTFGQGTKLEIK
notes: IgG2; also called optimized BA51.23 antibody (N105L)

Experiments:
[1] = target: T1, CGRPα (4013281-1000, Bachem); assay: ELISA, coated CGRPα titrated (0-0.2 μg/mL), antibody fixed at 1 μg/mL
[2] = target: T1, CGRPα (4013281-1000, Bachem); assay: BLI (Octet RED 96), α-CGRP on streptavidin biosensors, antibody in solution, 1:1 model
[3] = target: T1, CGRPα (4013281-1000, Bachem); assay: cell-based or functional assay

| Binder | EC50 [1] | Kd [2] [pM] | koff [2] [s⁻¹] | kon [2] [M⁻¹ s⁻¹] | EC50, cell-based cAMP activation assay (HTRF) with CGRP [3] [µg/mL] |
| --- | --- | --- | --- | --- | --- |
| B1 | 0.0135 µg/mL and 0.036 µg/mL | < 1 | < 1e-07 | 122000 | – |
| B2 | 0.00844 µg/mL | – | – | – | 32 |
| B3 | 0.0106 µg/mL | – | – | – | 44.9 |
